# T1: full-length human Apaf-1 (residues 1–1248) (human, UniProt O14727 1-1248)
# T1 construct: Seven copies stand in the apoptosome that forms with CytC and dATP; source: Hi-5 insect cells (baculovirus), purified (Ni-NTA, gel filtration Superose 6)
# T1 sequence (looked up): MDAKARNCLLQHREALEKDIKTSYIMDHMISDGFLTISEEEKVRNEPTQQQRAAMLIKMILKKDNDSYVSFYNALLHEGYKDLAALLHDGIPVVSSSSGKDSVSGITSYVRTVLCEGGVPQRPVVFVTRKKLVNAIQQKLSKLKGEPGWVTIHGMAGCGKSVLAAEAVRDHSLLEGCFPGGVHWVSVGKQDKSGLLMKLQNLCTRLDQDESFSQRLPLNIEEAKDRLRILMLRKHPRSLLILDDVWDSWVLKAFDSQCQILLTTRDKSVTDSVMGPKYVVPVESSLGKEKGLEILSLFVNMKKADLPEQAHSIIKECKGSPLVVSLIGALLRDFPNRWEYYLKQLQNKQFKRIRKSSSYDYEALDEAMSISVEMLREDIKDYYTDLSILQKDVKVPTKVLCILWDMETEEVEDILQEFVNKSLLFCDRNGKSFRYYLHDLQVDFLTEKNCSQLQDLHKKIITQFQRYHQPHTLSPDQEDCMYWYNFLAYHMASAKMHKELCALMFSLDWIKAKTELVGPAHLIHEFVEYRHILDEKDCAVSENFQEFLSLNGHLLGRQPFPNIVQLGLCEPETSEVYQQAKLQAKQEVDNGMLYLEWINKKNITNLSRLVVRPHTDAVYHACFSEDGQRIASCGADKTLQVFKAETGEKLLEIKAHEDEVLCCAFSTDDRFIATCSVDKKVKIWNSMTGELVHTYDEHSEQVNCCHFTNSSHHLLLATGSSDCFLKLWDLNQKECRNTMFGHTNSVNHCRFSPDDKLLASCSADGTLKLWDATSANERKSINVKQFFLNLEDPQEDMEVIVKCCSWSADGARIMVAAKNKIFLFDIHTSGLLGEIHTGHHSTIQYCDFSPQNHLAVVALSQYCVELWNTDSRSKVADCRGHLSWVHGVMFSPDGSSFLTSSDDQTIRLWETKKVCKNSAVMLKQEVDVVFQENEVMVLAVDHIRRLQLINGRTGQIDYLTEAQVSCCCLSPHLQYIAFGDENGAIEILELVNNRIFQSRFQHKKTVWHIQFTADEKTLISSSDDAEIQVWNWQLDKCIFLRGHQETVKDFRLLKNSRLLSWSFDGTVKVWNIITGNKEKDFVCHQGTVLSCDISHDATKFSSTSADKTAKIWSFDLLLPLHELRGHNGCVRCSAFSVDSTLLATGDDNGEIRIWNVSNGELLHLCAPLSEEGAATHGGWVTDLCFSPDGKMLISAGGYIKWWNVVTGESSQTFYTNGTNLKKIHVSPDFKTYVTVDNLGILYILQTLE
# B1: untagged, full-length horse CytC (wild type, recombinant) (natural protein)
# chain: not shown
# notes: cytochrome c, horse (Equus caballus), untagged, full length; Purification as in Yu et al. 2001; also called cytochrome c; wild-type CytC; source: E. coli BL21 (DE3), coexpressed with the yeast heme lyase CYC3, purified
# B2: horse CytC K87W (natural protein)
# chain: not shown
# notes: cytochrome c, horse, untagged, full length, mutant K87W; source: E. coli BL21 (DE3), coexpressed with the yeast heme lyase CYC3, purified
# Columns and labels:
# [1] = molecular target: T1, full-length human Apaf-1 (residues …); assay: ITC; Apaf-1 4 μM, CytC 60 μM; 100 mM KCl, 20 mM HEPES pH 7.5; 22°C; VP-ITC; conditions: both partners purified
# [2] = molecular target: T1, full-length human Apaf-1 (residues …); assay: SEC; Apaf-1 incubated with CytC at a molar ratio of 1:2, Superdex-200 increase 5/150; 100 mM KCl, 20 mM HEPES pH 7.5, 5 mM DTT; fractions on SDS-PAGE; no dATP named; conditions: both partners purified
binder,measurement,setting,value
B1,Ka,[1],~2.04e+06 M⁻¹
same,Kd,[1],~490 nM
B2,binding result,[2],binds
